Consider 7 molecules from publication PMC12431793, “Identification of antibodies induced by immunization with the syphilis vaccine candidate Tp0751” (Vaccine, 2025).

Common to all, as to settings: both partners purified
Test [1] addresses T1, Tp0751_(99–237) (Treponema pallidum subsp. pallidum, …, UniProt O83732).
T1 construct: Tp0751 of Treponema pallidum, amino acids 99-237 (N-terminal truncation; alpha helix cap 99-114 and lipocalin domain 115-237)
Briefly: ELISA; epitope mapping: 33pM of antibody on plate-coated Tp0751_(24–237), Tp0751_(99–237) or Tp0751_(115–237).

Test [2] concerns the target T2, Tp0751_(115–237) (Treponema pallidum subsp. pallidum, …, UniProt O83732).
T2 construct: Tp0751 of Treponema pallidum, amino acids 115-237 (N-terminal truncation; lipocalin structural fold); also called Tp0751 lipocalin structural/functional domain
Described as above.

For test [3], the target named is T3, Tp0751_(24–237) (Treponema pallidum subsp. pallidum, …, UniProt O83732).
T3 construct: The biotinylated, streptavidin-tetramerised form was used only to stain and sort B cells, not in BLI or ELISA; also called soluble Tp0751_(24–237); mature Tp0751 protein
T3 sequence (O83732 24-237): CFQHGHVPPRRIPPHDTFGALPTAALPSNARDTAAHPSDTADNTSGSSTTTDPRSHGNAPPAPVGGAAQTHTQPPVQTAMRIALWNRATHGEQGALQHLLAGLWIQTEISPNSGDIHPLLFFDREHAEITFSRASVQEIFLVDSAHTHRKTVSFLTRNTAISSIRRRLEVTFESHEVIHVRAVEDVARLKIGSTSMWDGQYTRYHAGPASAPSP
Nature of the test: ELISA; titration: plates coated with 15 pmol/well Tp0751_(24–237) in 1xTBS pH 7.4; 0.2 pM-33 nM rabbit antibodies serially diluted in 4 % skim milk in TBS, 1 h at room temperature; anti-rabbit IgG-HRP. (In general: In an ELISA, binding on a coated surface is turned into a signal by an enzyme label.)

Test [4] addresses T3, Tp0751_(24–237). Nature of the test: ELISA; epitope mapping: 33pM of antibody on plate-coated Tp0751_(24–237), Tp0751_(99–237) or Tp0751_(115–237).
Test [5] concerns the target T3, Tp0751_(24–237). Nature of the test: BLI; OctetRed, room temperature, shaking at 500 RPM; 40 μg/mL antibody loaded on Protein A capture biosensors; 0.1, 0.7 or 6 μM Tp0751_(24–237) in solution, 5 min association, 5 min dissociation in kinetics buffer. Background: In BLI a coated tip is dipped into the sample, and binding shifts an interference pattern.

T1 sequence (O83732 99-237): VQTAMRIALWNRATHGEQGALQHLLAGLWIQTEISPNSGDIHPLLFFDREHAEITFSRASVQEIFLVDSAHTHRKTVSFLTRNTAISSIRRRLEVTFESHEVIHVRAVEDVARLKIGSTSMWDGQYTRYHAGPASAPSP
T2 sequence (O83732 115-237): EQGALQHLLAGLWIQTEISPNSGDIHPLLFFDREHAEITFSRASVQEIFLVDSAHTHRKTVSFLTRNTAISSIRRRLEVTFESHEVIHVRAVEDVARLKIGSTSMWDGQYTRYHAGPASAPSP

B1: 2101D12 (antibody, V domains shown)
VH: QQLEESGGGLVKPGGTLTLTCKASGWDFSSSYWISWVRQAPGKGLEWIAYINTDSLKTYYATWAKGRFTVSKTSSTTVTLQVTSLTAADTATYFCADGAFWGPGTLVTVSS
VL: DVVMTQTPASVSAAVGGTVTINCQASQSINSWLSWYQQKPGQPPKRLINDASTLESGVPSRFKGSGCGTQFTLTISDLECADAATYYCQSHYFSRSIDYYNAFGGGTEVVVK
notes: made as rabbit IgG; source: produced and purified as rabbit IgG by Sino Biological
Turning to B1, the binding result in test [1], in test [2] and in test [3] was “binds” in each case.

B2: 2131F4 (antibody, V domains shown)
VH: QSVEESGGDLVKPEGSLTLTCTASEFSFNTNHYVCWVRQAPGKGLEWLACVAGGGSGATYYATWAKGRFTLSRTSSSTVTLEMTSLAPADTATYFCARVDSTDFNFDLWGPGTLVTVSS
VL: DPVMTQTPSPVSAAVGGTVSISCQSSQIVYNDNWLSWYQQKPGQPPKRLIYGTSNSASGVPSRFKGSGCGTQFTLTISDVQCDDAATYYCQGGYLVGDVYVFGGGTEVVVK
notes: as for B1
In the case of B2, the binding result is given as “binds” in test [4], “no binding (tested: 33pM of antibody)” in test [1] and “no binding (tested: 33pM of antibody)” in test [2].

B3: 2101A3 (antibody, V domains shown)
VH: QSLEESGGGLVKPGGTLTLTCKASGFDLSSYYYMCWVRQAPGKGLEWIACTYISSGSTWYASWAKGRFTVSKPSSTTVTLQMTSLTAADTATYFCAREVGSPEYGYYLDLWGPGTLVTVSS
VL: DVVMTQTPASVEAAVGGTVTIKCQASQSISSWLSWYQQKPGQPPKLLIYQASKLASGVPSRFKGSGCGTEYTLTISDLECADGATYYCQTYYGSGSSNYHAFGGGTEVVVK
notes: as for B1
For the molecule B3, the binding result in test [1] is reported as “binds”; in test [2], “no binding (tested: 33pM of antibody)”; in test [3], “binds”.

B4: 2101B3 (antibody, V domains shown)
VH: QSLEESGGDLVKPGASLTLTCTASGLDFSGYYYICWVRQAPGKGLEWIGCIWPGDGDTDYASWAKGRFTVSKTSSTTVDLKVTTLTAADTATYFCGRLLGSGSAYFNLWGPGTLVTVSS
VL: AVVMTQTPSSVSEAVGGTVTIKCQASQTIGEALAWYQQKPGQPPKLLIYKASTVASGVPWRFKGSGCGSEYTLTISGVQCEDAATYYCQQGYSLTIIDNLFGGGTEVVVE
notes: as for B1
Turning to B4, the binding result in test [4], in test [1] and in test [2] was “binds” each time.

B5: 2092D3 (antibody, V domains shown)
VH: QSVEESGGRLVTPGTPLTLTCTVSGFSLSSYTMSWVRQAPGKGLEWIGVISGSDTLSYATWAKGRFTISKTSTTVDLKITSPTTADTATYFCARDGGYSDYDHAPNIWGPGTLVTVSL
VL: DVVMTQTPASVEAAVGGTVTIKCQASQSIYNYLAWYQQKPGQPPKLLIYQASKVASGVPSRFKGRGSGTQFTLTISDLECADAATYYCQWSFYDSNYIGAFGGGTEVVVK
notes: as for B1
With B5, the binding result in test [1] is listed as “binds”; in test [2], “no binding (tested: 33pM of antibody)”; in test [3] it was “binds”.

B6: 2092E3 (antibody, V domains shown)
VH: QSVEESGGRLVTPGTPLTLTCTVSGIDLSSYAMSWVRQAPGKGLEWIGVIGDMDIVSYATWAKGRFTISKTSTTVDLKITSPTTADTATYFCAGDGGYSDYDHAPNIWGPGTLVTVSL
VL: DVVMTQTPASVEAAVGGTVTIKCHASESIYDYLAWYQQKPGQPPKLLISKASTLASGVPSGFKASGSGTLFTLTISDLECADAATYYCQWSFYDHYYVGAFGGGTEVVVK
notes: as for B1
For B6, the binding result in test [4] is “binds”; in test [1], “binds”; in test [2], “no binding (tested: 33pM of antibody)”.

B7: 2091E9 (antibody, V domains shown)
VH: QSVEESGGRLVTPGGSLTLTCTVSGFSLSSYVMTWVRQAPGKGLEWIGYIYIDGYTTWYASWVKGRFTISRTSTTVDLKMTSLSTEDTATYFCVRVGATIDFMMRRLDLWGQGTLVTVSS
VL: DVVMTQTPSSVSAAVRGTVTIKCQASPSVYSDYLSWYQQKPGQRPKLLMYGTSTLASGVPSRFKGSGSGTQFTLTISDVQCDDAATYYCAGGFNSGADSFAFGGGTEVVVQ
notes: as for B1
Regarding B7, the binding result in test [2] and in test [5] was “binds” each time.
